T1: band 3cyt cytoplasmic domain (Homo sapiens, UniProt P02730)
T1 chain: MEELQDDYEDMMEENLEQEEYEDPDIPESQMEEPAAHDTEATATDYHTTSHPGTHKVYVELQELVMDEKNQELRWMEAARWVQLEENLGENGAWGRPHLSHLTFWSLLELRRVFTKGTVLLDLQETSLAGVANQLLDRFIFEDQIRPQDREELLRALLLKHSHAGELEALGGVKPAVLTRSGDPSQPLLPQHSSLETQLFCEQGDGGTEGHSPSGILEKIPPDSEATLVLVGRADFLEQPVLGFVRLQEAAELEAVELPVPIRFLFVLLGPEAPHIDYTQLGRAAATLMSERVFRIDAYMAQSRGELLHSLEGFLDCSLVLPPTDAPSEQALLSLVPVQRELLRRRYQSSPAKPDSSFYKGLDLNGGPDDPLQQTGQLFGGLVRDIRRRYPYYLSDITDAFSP

T2: GPCcyt cytoplasmic domain (Homo sapiens, UniProt P04921)
T2 chain: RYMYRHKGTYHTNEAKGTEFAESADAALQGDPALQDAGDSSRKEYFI


Legend:
Experiment in all cases: resonant mirror detection (IAsys)
CaM = CaM (Homo sapiens, UniProt P0DP23)
[1] = target: T1, band 3cyt cytoplasmic domain
[2] = target: T2, GPCcyt cytoplasmic domain

| Kd (CaM) | Kd [1] | Kd [2] | Binder |
| --- | --- | --- | --- |
| 11700 nM | – | – | 4.1R135 (protein, EGTA (no Ca2+)) MTTEKSLVTEAENSQHQQKEEGEEAINSGQQEPQQEESCQTAAEGDNWCEQKLKASNGDTPTHEDLTKNKERTSESRGLSRLFSSFLKRPKSQVSEEEGKEVESDKEKGEGGQKEIEFGTSLDEEIILKAPIAAPEPELKTDPSLDLHSLSSAETQPAQEELREDPDFEIKEGEGLEECSKIEVKEESPQSKAETELKASQKPIRKHRNMHCKVSLLDDTVYECVVEKHAKGQDLLKRVCEHLNLLEEDYFGLAIWDNATSKTWLDSAKEIKKQVRGVPWNFTFNVKFYPPDPAQLTEDITRYYLCLQLRQDIVAGRLPCSFATLALLGSYTIQSELGDYDPELHGVDYVSDFKLAPNQTKELEEKVMELHKSYRSMTPAQADLEFLENAKKLSMYGVDLHKAKDLEGVDIILGVCSSGLLVYKDKLRINRFPWPKVLKISYKRSSFFIKIRPGEQEQYESTIGFKLPSYRAAKKLWKVCVEHHTFFRLTSTDTIPKSKFLALGSKFRYSGRTQAQTRQASALIDRPAPHFERTASKRASRSLDGAAAVDSADRSPRPTSAPAITQGQVAEGGVLDASAKKTVVPKAQKETVKAEVKKEDEPPEQAEPEPTEAWKVEKTHIEVTVPTSNGDQTQKLAEKTEDLIRMRKKKRERLDGENIYIRHSNLMLEDLDKSQEEIKKHHASISELKKNFMESVPEPRPSEWDKRLSTHSPFRTLNINGQIPTGEGPPLVKTQTVTISDNANAVKSEIPTKDVPIVHTETKTITYEAAQTDDNSGDLDPGVLLTAQTITSETPSSTTTTQITKTVKGGISETRIEKRIVITGDADIDHDQVLVQAIKEAKEQHPDMSVTKVVVHQETEIADE |
| 78 nM | – | – | 4.1R135 (protein, Ca2+) MTTEKSLVTEAENSQHQQKEEGEEAINSGQQEPQQEESCQTAAEGDNWCEQKLKASNGDTPTHEDLTKNKERTSESRGLSRLFSSFLKRPKSQVSEEEGKEVESDKEKGEGGQKEIEFGTSLDEEIILKAPIAAPEPELKTDPSLDLHSLSSAETQPAQEELREDPDFEIKEGEGLEECSKIEVKEESPQSKAETELKASQKPIRKHRNMHCKVSLLDDTVYECVVEKHAKGQDLLKRVCEHLNLLEEDYFGLAIWDNATSKTWLDSAKEIKKQVRGVPWNFTFNVKFYPPDPAQLTEDITRYYLCLQLRQDIVAGRLPCSFATLALLGSYTIQSELGDYDPELHGVDYVSDFKLAPNQTKELEEKVMELHKSYRSMTPAQADLEFLENAKKLSMYGVDLHKAKDLEGVDIILGVCSSGLLVYKDKLRINRFPWPKVLKISYKRSSFFIKIRPGEQEQYESTIGFKLPSYRAAKKLWKVCVEHHTFFRLTSTDTIPKSKFLALGSKFRYSGRTQAQTRQASALIDRPAPHFERTASKRASRSLDGAAAVDSADRSPRPTSAPAITQGQVAEGGVLDASAKKTVVPKAQKETVKAEVKKEDEPPEQAEPEPTEAWKVEKTHIEVTVPTSNGDQTQKLAEKTEDLIRMRKKKRERLDGENIYIRHSNLMLEDLDKSQEEIKKHHASISELKKNFMESVPEPRPSEWDKRLSTHSPFRTLNINGQIPTGEGPPLVKTQTVTISDNANAVKSEIPTKDVPIVHTETKTITYEAAQTDDNSGDLDPGVLLTAQTITSETPSSTTTTQITKTVKGGISETRIEKRIVITGDADIDHDQVLVQAIKEAKEQHPDMSVTKVVVHQETEIADE |
| – | 23 nM | 1330 nM | 4.1R135 (protein) MTTEKSLVTEAENSQHQQKEEGEEAINSGQQEPQQEESCQTAAEGDNWCEQKLKASNGDTPTHEDLTKNKERTSESRGLSRLFSSFLKRPKSQVSEEEGKEVESDKEKGEGGQKEIEFGTSLDEEIILKAPIAAPEPELKTDPSLDLHSLSSAETQPAQEELREDPDFEIKEGEGLEECSKIEVKEESPQSKAETELKASQKPIRKHRNMHCKVSLLDDTVYECVVEKHAKGQDLLKRVCEHLNLLEEDYFGLAIWDNATSKTWLDSAKEIKKQVRGVPWNFTFNVKFYPPDPAQLTEDITRYYLCLQLRQDIVAGRLPCSFATLALLGSYTIQSELGDYDPELHGVDYVSDFKLAPNQTKELEEKVMELHKSYRSMTPAQADLEFLENAKKLSMYGVDLHKAKDLEGVDIILGVCSSGLLVYKDKLRINRFPWPKVLKISYKRSSFFIKIRPGEQEQYESTIGFKLPSYRAAKKLWKVCVEHHTFFRLTSTDTIPKSKFLALGSKFRYSGRTQAQTRQASALIDRPAPHFERTASKRASRSLDGAAAVDSADRSPRPTSAPAITQGQVAEGGVLDASAKKTVVPKAQKETVKAEVKKEDEPPEQAEPEPTEAWKVEKTHIEVTVPTSNGDQTQKLAEKTEDLIRMRKKKRERLDGENIYIRHSNLMLEDLDKSQEEIKKHHASISELKKNFMESVPEPRPSEWDKRLSTHSPFRTLNINGQIPTGEGPPLVKTQTVTISDNANAVKSEIPTKDVPIVHTETKTITYEAAQTDDNSGDLDPGVLLTAQTITSETPSSTTTTQITKTVKGGISETRIEKRIVITGDADIDHDQVLVQAIKEAKEQHPDMSVTKVVVHQETEIADE |
